Ki and fold more potent than the unsulfated counterpart data for eight molecules are collected here from US20230416341A1, “IMPROVED THROMBIN INHIBITORS FOR TREATMENT OF THROMBOEMBOLIC CONDITIONS” (priority 2020, published 2023).

Where only a bound is given, the exact number is not on record here.

The target in assay [1] is T1, human α-thrombin (Haematologic Technologies) (human), P00734. The assay is described as follows: inhibition of amidolytic activity of human α-thrombin (0.2 nM enzyme, chromogenic substrate Tos-Gly-Pro-Arg-pNA), tight-binding Morrison fit.
Assay [2] deals with T1, human α-thrombin (Haematologic …). Put plainly: thrombin inhibition; sulfated at Y33. Conditions: chains peptide; modification not given.
Assay [3] shares this target. Put plainly: inhibition of amidolytic activity of human α-thrombin; reference is unsulfated SEQ ID No:2.
The target is the same in assay [4]. The assay is described as follows: thrombin inhibition; sulfated at Y33 and Y36. Conditions: chains peptide; modification not given.
For assay [5] the target is unchanged. Put plainly: thrombin inhibition; unsulfated; unit from column head of Figure 1 table. Conditions: chains peptide; modification not given.
Assay [6] has the same target. Put plainly: thrombin inhibition; sulfated at Y36. Conditions: chains peptide; modification not given.
Assay [7] has the same target. Put plainly: thrombin inhibition; sulfated at Y32. Conditions: chains peptide; modification not given.
Assay [8] shares this target. The assay is described as follows: thrombin inhibition; sulfated at Y35. Conditions: chains peptide; modification not given.
Assay [9] shares this target. The assay is described as follows: thrombin inhibition; unsulfated. Conditions: chains peptide; modification not given.
The target is the same in assay [10]. Put plainly: inhibition of amidolytic activity of human α-thrombin; reference is unsulfated SEQ ID No:1.
The target is the same in assay [11]. The assay is described as follows: thrombin inhibition; sulfated at Y32 and Y35. Conditions: chains peptide; modification not given.

B1: SEQ ID No:2 (MDL-1) Y33 (sulfated at Y33) (peptide)
peptide: YPERDSAKDGNEEQERALPVNVQERGEVADADYDDYDEEGTTPTVDPTAQTARPRLQGNQS
modifications: not checked
For orientation: Ki means a measure of affinity in units of concentration, obtained from inhibition or displacement. Low readings indicate higher affinity, high ones lower affinity. Take B1: the inhibition constant Ki was below 20 nM in assay [1] and 3.59 nM in assay [2].

B2: SEQ ID No:2 (MDL-1) DS (sulfated at Y33 and Y36) (peptide)
peptide: B1 peptide
modifications: not checked
B2: the fold more potent than the unsulfated counterpart in assay [3] worked out at 10 fold. Further, the Ki is below 20 nM in [1] and 2.06 nM in [4].

B3: SEQ ID No:2 (MDL-1) Un (unsulfated) (protein)
chain: B1 peptide
On to B3, for which the inhibition constant Ki in assay [5] turned out to be 73.8 nM.

B4: SEQ ID No:2 (MDL-1) Y36 (sulfated at Y36) (peptide)
peptide: B1 peptide
modifications: not checked
B4: the Ki in assay [1] is below 20 nM; in assay [6], 17.6 nM.

B5: SEQ ID No:1 (MDL-2) Y32 (sulfated at Y32) (peptide)
chain: YPESDSAKDDGNQEKEKALLVKVQERSDDGDYDEYDNDETTHTPDPSAPTARPRIREHQA
For the molecule B5, the Ki was 1.99 nM in assay [7] and below 3 nM in assay [1].

B6: SEQ ID No:1 (MDL-2) Y35 (sulfated at Y35) (peptide)
chain: B5 chain
Turning to B6, the figures for the Ki in assay [8] and in assay [1] were 2.77 nM and below 3 nM, respectively.

B7: SEQ ID No:1 (MDL-2) Un (unsulfated) (protein)
chain: B5 chain
As to B7, the Ki in assay [9] was found to be 27.2 nM.

B8: SEQ ID No:1 (MDL-2) DS (sulfated at Y32 and Y35) (peptide)
peptide: B5 chain
modifications: not checked
In [10], B8 had a fold more potent than the unsulfated counterpart above 100 fold. The inhibition constant Ki in assay [11] was 0.156 nM; in assay [1], below 3 nM.
